The values that follow come from US20080213187A1, “NOVEL CASCADE POLYMER COMPLEXES, PROCESSES FOR THEIR PREPARATION AND PHARMACEUTICAL COMPOSITIONS COMPRISING THEM” (priority 2007, published 2008).

A short description of data set [1]: Plasma kinetics after intravenous administration to rats. Format: in vivo. Particulars: for Plasma levels (as % of the dose): i.v. 50 μmol total Gd/kg, ICP-AES. Here is the method:
Plasma Kinetics of the Compounds 2e and 4e After Intravenous Administration to Rats
The title substances from Examples 2e and 4e, and for comparison the title substance from Example 1 of EP 0 836 485, were administered intravenously to rats in a dose of 50 μmol of total gadolinium/kg of body weight. Blood samples were then taken through a catheter in the common carotid artery at various times (1, 3, 5, 10, 15, 30, 60, 90, 120, 240, 360 min, and 24 h p.i.), and the metal content was determined by atomic emission spectroscopy (ICP-AES) and converted into plasma levels using a conversion factor (0.625). The kinetic data were calculated (software: WinNonlin) from the plasma concentrations (Tab. 1, 2).

For data set [2] the following is noted: rats, cited from earlier work.
For data set [3] the following is noted: rats; cited from earlier work.
Setting [4] is: intravenous, 50 μmol of total gadolinium/kg, calculated with WinNonlin from plasma concentrations.

On to `CC(C(=O)NCC(=O)NCCCC[C@H](NC(=O)CNC(=O)C(C)N1CCN(CC(=O)O)CCN(CC(=O)O)CCN(CC(=O)O)CC1)C(=O)NCCCC[C@H](NC(=O)[C@H](CCCCNC(=O)CNC(=O)C(C)N1CCN(CC(=O)O)CCN(CC(=O)O)CCN(CC(=O)O)CC1)NC(=O)CNC(=O)C(C)N1CCN(CC(=O)O)CCN(CC(=O)O)CCN(CC(=O)O)CC1)C(=O)NCCN(CCNC(=O)[C@H](CCCCNC(=O)[C@H](CCCCNC(=O)CNC(=O)C(C)N1CCN(CC(=O)O)CCN(CC(=O)O)CCN(CC(=O)O)CC1)NC(=O)CNC(=O)C(C)N1CCN(CC(=O)O)CCN(CC(=O)O)CCN(CC(=O)O)CC1)NC(=O)[C@H](CCCCNC(=O)CNC(=O)C(C)N1CCN(CC(=O)O)CCN(CC(=O)O)CCN(CC(=O)O)CC1)NC(=O)CNC(=O)C(C)N1CCN(CC(=O)O)CCN(CC(=O)O)CCN(CC(=O)O)CC1)C(=O)c1cc(C(=O)N(CCNC(=O)[C@H](CCCCNC(=O)[C@H](CCCCNC(=O)CNC(=O)C(C)N2CCN(CC(=O)O)CCN(CC(=O)O)CCN(CC(=O)O)CC2)NC(=O)CNC(=O)C(C)N2CCN(CC(=O)O)CCN(CC(=O)O)CCN(CC(=O)O)CC2)NC(=O)[C@H](CCCCNC(=O)CNC(=O)C(C)N2CCN(CC(=O)O)CCN(CC(=O)O)CCN(CC(=O)O)CC2)NC(=O)CNC(=O)C(C)N2CCN(CC(=O)O)CCN(CC(=O)O)CCN(CC(=O)O)CC2)CCNC(=O)[C@H](CCCCNC(=O)[C@H](CCCCNC(=O)CNC(=O)C(C)N2CCN(CC(=O)O)CCN(CC(=O)O)CCN(CC(=O)O)CC2)NC(=O)CNC(=O)C(C)N2CCN(CC(=O)O)CCN(CC(=O)O)CCN(CC(=O)O)CC2)NC(=O)[C@H](CCCCNC(=O)CNC(=O)C(C)N2CCN(CC(=O)O)CCN(CC(=O)O)CCN(CC(=O)O)CC2)NC(=O)CNC(=O)C(C)N2CCN(CC(=O)O)CCN(CC(=O)O)CCN(CC(=O)O)CC2)cc(C(=O)N(CCNC(=O)[C@H](CCCCNC(=O)[C@H](CCCCNC(=O)CNC(=O)C(C)N2CCN(CC(=O)O)CCN(CC(=O)O)CCN(CC(=O)O)CC2)NC(=O)CNC(=O)C(C)N2CCN(CC(=O)O)CCN(CC(=O)O)CCN(CC(=O)O)CC2)NC(=O)[C@H](CCCCNC(=O)CNC(=O)C(C)N2CCN(CC(=O)O)CCN(CC(=O)O)CCN(CC(=O)O)CC2)NC(=O)CNC(=O)C(C)N2CCN(CC(=O)O)CCN(CC(=O)O)CCN(CC(=O)O)CC2)CCNC(=O)[C@H](CCCCNC(=O)[C@H](CCCCNC(=O)CNC(=O)C(C)N2CCN(CC(=O)O)CCN(CC(=O)O)CCN(CC(=O)O)CC2)NC(=O)CNC(=O)C(C)N2CCN(CC(=O)O)CCN(CC(=O)O)CCN(CC(=O)O)CC2)NC(=O)[C@H](CCCCNC(=O)CNC(=O)C(C)N2CCN(CC(=O)O)CCN(CC(=O)O)CCN(CC(=O)O)CC2)NC(=O)CNC(=O)C(C)N2CCN(CC(=O)O)CCN(CC(=O)O)CCN(CC(=O)O)CC2)c1)N1CCN(CC(=O)O)CCN(CC(=O)O)CCN(CC(=O)O)CC1` (stereo partly drawn) [Example No. 1 from EP 0 836 485], for which the “Plasma levels (as % of the dose)” value in data set [1] (1 min p.i.) came to 75.0%; in data set [1] (3 min p.i.) it was 39.2%; in data set [1] (5 min p.i.), 25.0%; in data set [1] (10 min p.i.) it was 6.9%; in data set [1] (15 min p.i.) it was 4.0%; in data set [1] (30 min p.i.) it was 1.5%. Moreover, the “Plasma levels (as % of the dose)” value came out at 1.0% in data set [1] (60 min p.i.); 0.9% in data set [1] (90 min p.i.); 0.7% in data set [1] (120 min p.i.); 0.4% in data set [1] (240 min p.i.); 0.4% in data set [1] (360 min p.i.); 0.0% in data set [1] (1440 min p.i.).
On to “Octa-Gd complex amide from the Gd complex of 10-(4-carboxy-1-methyl-2-oxo-3-azabutyl)-1,4,7,10-tetraazacyclododecane-1,4,7-triacetic acid with dendritic octaamine 4d [Example 4e]”, for which the “Plasma levels (as % of the dose)” value was found to be 65.9% in data set [1] (1 min p.i.); 44.2% in data set [1] (3 min p.i.); 30.0% in data set [1] (5 min p.i.); 17.5% in data set [1] (10 min p.i.); 13.5% in data set [1] (15 min p.i.); 8.3% in data set [1] (30 min p.i.). The “Plasma levels (as % of the dose)” value in data set [1] (60 min p.i.) came out at 4.5%; in data set [1] (90 min p.i.), 2.7%; in data set [1] (120 min p.i.) it was 1.6%; in data set [1] (240 min p.i.) it was 0.3%; in data set [1] (360 min p.i.), 0.0%; in data set [1] (1440 min p.i.), 0.0%. In addition, the “Half-life α phase” value in data set [1] (setting [4]) is 3.3 min. Moreover, the “Half-life β phase” value in data set [1] (setting [4]) was 42.0 min. Further, the “Volume of distribution Vd ss” value in data set [1] (setting [4]) was 0.20 L/kg.
For the molecule albumin-GdDTPA, the “accumulation in liver tissue” value in data set [2] (24 hours after intravenous injection) is recorded as ~30 % of the dose. In addition, the dose eliminated in data set [2] (in 24 hours) is 20 % of the dose.
For polylysine-GdDTPA, the excretion behaviour entry in data set [3] is on record as “excreted unchanged by glomerular filtration via the kidney”.
